“And” between values parts separate entries of the source, which are not always exact repeats. Identical values can stand only once. Like-named read-outs stand apart in the source and are kept apart here.
Key:
[1] = molecular target: T1, ubiquitin (Ub), monomeric, wild type (UniProt P0CG48 1-76); assay: NMR titration
[2] = molecular target: T1, ubiquitin (Ub), monomeric, wild type; assay: NMR titration; remark: listed apart in the source

Row | Binder | Kd [1] [µM] | Kd [2] | binding result [2] | stoichiometry N [2]
1 | TFPEQTIKQLMDLGFPRDAVVKALKQTNGNAEFAASLLFQ (domain or fragment, S. cerevisiae, UniProt P40087 389-428, looked up) [Ddi1UBA, ubiquitin-associated (UBA) domain of Ddi1 from Saccharomyces cerevisiae, residues 389-428] | 291 ± 13 | 150 ± 16 µM | – | –
2 | full-length (FL) Ddi1 protein from Saccharomyces cerevisiae (natural protein, S. cerevisiae, UniProt P40087 1-428, looked up) MDLTISNELTGEIYGPIEVSEDMALTDLIALLQADCGFDKTKHDLYYNMDILDSNRTQSLKELGLKTDDLLLIRGKISNSIQTDAATLSDEAFIEQFRQELLNNQMLRSQLILQIPGLNDLVNDPLLFRERLGPLILQRRYGGYNTAMNPFGIPQDEYTRLMANPDDPDNKKRIAELLDQQAIDEQLRNAIEYTPEMFTQVPMLYINIEINNYPVKAFVDTGAQTTIMSTRLAKKTGLSRMIDKRFIGEARGVGTGKIIGRIHQAQVKIETQYIPCSFTVLDTDIDVLIGLDMLKRHLACVDLKENVLRIAEVETSFLSEAEIPKSFQEGLPAPTSVTTSSDKPLTPTKTSSTLPPQPGAVPALAPRTGMGPTPTGRSTAGATTATGRTFPEQTIKQLMDLGFPRDAVVKALKQTNGNAEFAASLLFQ | – | – | binds | –

More lines, now with the values ahead:

Row | Kd [1] [µM] | Kd [2] | binding result [2] | stoichiometry N [2] | Binder
3 | 175 ± 25 | 45 µM and 71 µM | – | 1 | Ddi1UBL, ubiquitin-like (UBL) domain of DNA-damage-inducible 1 protein (Ddi1) from Saccharomyces cerevisiae, residues 2-80 (domain or fragment, S. cerevisiae, UniProt P40087 2-80, looked up) DLTISNELTGEIYGPIEVSEDMALTDLIALLQADCGFDKTKHDLYYNMDILDSNRTQSLKELGLKTDDLLLIRGKISNS
4 | – | 237 ± 52 µM | – | – | Ufo1UIMs, Ufo1 fragment of residues 547-668 comprising three UIM motifs (domain or fragment, UniProt Q04511 547-668, looked up) DEDEQLRRALEESQLIYETQTNSSANHGNNTNDEIDEDDEEFLRAIRQSRVEDERRRHLRNHTTGRRNGPLSDDNFATYGAAESSERTSTENTIGSSVGVDASNNVDEDLQLAIALSLSEIN

— paper PMC4448915 (Structure (London, England : 1993), 2015)
